The text below walks through data of the supplement of paper PMC7125110.

B1: glmS ribozyme (parent)
chain: AUAAAAGCGCCAGAACUACAGAAAUGUAGUUGACGAGGAGGAGGUUUAUCGAAUUUUCGGCGGAUGCCUCCAAA

± gives the standard error. Variants at the floor of the assay were thinned out.

This data set covers variants of B1. Description: self-cleavage kobs at 10000 uM GlcN6P; higher = faster cleavage; RNA array. Conditions: with glucosamine-6-phosphate. The method in brief: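 A hybridised Cy3 probe tracked barcoded ribozyme variants, transcribed in situ by E. coli RNA polymerase on sequenced MiSeq chips, at 37 °C. The variants received 40 μM to 10 mM glucosamine-6-phosphate in HEPES/KCl/Mg(OAc)2 buffer. kobs came from decay fits and kcat and KM from weighted Michaelis–Menten fits.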
Regarding A6C A14G A64G, the “self-cleavage kobs at 10000 uM GlcN6P” value worked out at 0.000191 ± 3.2e-05 s⁻¹.
Take A12U G44C A53G: the “self-cleavage kobs at 10000 uM GlcN6P” value was determined as 0.000245 ± 4.7e-05 s⁻¹.
Turning to G9C G63A C68G, the “self-cleavage kobs at 10000 uM GlcN6P” value is less than 1e-05 s⁻¹.
The value for G41C U56G G62U was less than 1e-05 s⁻¹; that for C8A G40C G59A G63A was less than 1e-05 s⁻¹; that for C34A C67G C70A was less than 1e-05 s⁻¹.
As for G38A A39U U54A, the “self-cleavage kobs at 10000 uM GlcN6P” value was less than 1e-05 s⁻¹.
Regarding A12C A14G U47A A53G C58U, the “self-cleavage kobs at 10000 uM GlcN6P” value was determined as 3.29e-05 ± 1.6e-05 s⁻¹.
For G35C U45A C58G, the “self-cleavage kobs at 10000 uM GlcN6P” value was less than 1e-05 s⁻¹.
Under C16G A33U G35U G63U A64C stands less than 1e-05 s⁻¹; under C10G C61A G66U, less than 1e-05 s⁻¹.
Under G40A G44U A64C stands less than 1e-05 s⁻¹; under C11G G32U G41U G43U A52C C67A U69A, less than 1e-05 s⁻¹.
On to A48U C61A C70G, for which the “self-cleavage kobs at 10000 uM GlcN6P” value is less than 1e-05 s⁻¹.
With C11G U30A G59C, the “self-cleavage kobs at 10000 uM GlcN6P” value came to 0.000168 ± 3.9e-05 s⁻¹.
Turning to C11U G38U A42G, the “self-cleavage kobs at 10000 uM GlcN6P” value was less than 1e-05 s⁻¹.
Under A39C G40U G59C C70U stands less than 1e-05 s⁻¹.
Under A6C G37A C68A stands less than 1e-05 s⁻¹; under A42U U65G U69G, 0.00259 ± 0.00036 s⁻¹; under G9U C34U A36C G62C, less than 1e-05 s⁻¹.
Turning to C16G G32U C58U, the “self-cleavage kobs at 10000 uM GlcN6P” value came out at 0.000423 ± 0.00013 s⁻¹.
As to G7A A33G C68U C70G, the “self-cleavage kobs at 10000 uM GlcN6P” value was determined as 5.57e-05 ± 2e-05 s⁻¹.
For the variant C50U G60U C70A, the “self-cleavage kobs at 10000 uM GlcN6P” value is less than 1e-05 s⁻¹.
The value for U31A C61G C71U was less than 1e-05 s⁻¹; that for C16U U31A U45A was 0.00606 ± 0.0026 s⁻¹; that for C16A U31C U55A was 0.000194 ± 3.1e-05 s⁻¹.
As to G7U A14U G29C, the “self-cleavage kobs at 10000 uM GlcN6P” value was less than 1e-05 s⁻¹.
As for A14U A52U U54C, the “self-cleavage kobs at 10000 uM GlcN6P” value came out at 0.000114 ± 1.6e-05 s⁻¹.
In the case of C11U A42C U69A, the “self-cleavage kobs at 10000 uM GlcN6P” value worked out at 9.21e-05 ± 2.5e-05 s⁻¹.
Take A15G G29C G44C: the “self-cleavage kobs at 10000 uM GlcN6P” value was less than 1e-05 s⁻¹.
With G32A U45G U49G C71G, the “self-cleavage kobs at 10000 uM GlcN6P” value was less than 1e-05 s⁻¹.
As for G37U G38A G51U, the “self-cleavage kobs at 10000 uM GlcN6P” value is less than 1e-05 s⁻¹.
On to G29C G32A U54A, for which the “self-cleavage kobs at 10000 uM GlcN6P” value was found to be 0.000923 ± 0.00011 s⁻¹.
As for G32A U55A C67G, the “self-cleavage kobs at 10000 uM GlcN6P” value was 8.33e-05 ± 2.7e-05 s⁻¹.
Regarding G13U U54G C67U, the “self-cleavage kobs at 10000 uM GlcN6P” value stood at 0.000238 ± 4.9e-05 s⁻¹.
Consider U30G A42G G62U, for which the “self-cleavage kobs at 10000 uM GlcN6P” value was less than 1e-05 s⁻¹.
As for C16U G43C A64C C71G, the “self-cleavage kobs at 10000 uM GlcN6P” value is less than 1e-05 s⁻¹.
The value for G32C A36C C67U was less than 1e-05 s⁻¹; that for A14C G32U U65G was 0.000125 ± 3e-05 s⁻¹; that for G9U U31G U54A was less than 1e-05 s⁻¹.
Regarding U45A A52U C61A, the “self-cleavage kobs at 10000 uM GlcN6P” value is less than 1e-05 s⁻¹.
With G43A U46A G59C, the “self-cleavage kobs at 10000 uM GlcN6P” value is less than 1e-05 s⁻¹.
Regarding G7A A64G C67U C70G, the “self-cleavage kobs at 10000 uM GlcN6P” value was less than 1e-05 s⁻¹.
Turning to U54A G60U A64U, the “self-cleavage kobs at 10000 uM GlcN6P” value is less than 1e-05 s⁻¹.
Turning to G29A G40U C68G, the “self-cleavage kobs at 10000 uM GlcN6P” value is less than 1e-05 s⁻¹.
With A6C U31A A64C C71G, the “self-cleavage kobs at 10000 uM GlcN6P” value is less than 1e-05 s⁻¹.
Take A12C A15U C58G: the “self-cleavage kobs at 10000 uM GlcN6P” value stood at 0.00016 ± 3.5e-05 s⁻¹.
For the variant A6C C16U G38U U49G G51U G59C U65A, the “self-cleavage kobs at 10000 uM GlcN6P” value was less than 1e-05 s⁻¹.
The value for A12G C16G C34G U55G was less than 1e-05 s⁻¹.
G13U G37A C50U U69A: the “self-cleavage kobs at 10000 uM GlcN6P” value is less than 1e-05 s⁻¹.
Under G35U G40C G59C G62A U69C stands less than 1e-05 s⁻¹.
Under G35A A52C U55C stands less than 1e-05 s⁻¹.
The value for U30A U47G A53G was 0.000616 ± 0.0001 s⁻¹; that for A39C G51A C58U G62U was less than 1e-05 s⁻¹; that for G7A C8U U56C was less than 1e-05 s⁻¹.
As for A39C A42U U46G, the “self-cleavage kobs at 10000 uM GlcN6P” value was 3.93e-05 ± 1.5e-05 s⁻¹.
For the variant A14G A42U A52G, the “self-cleavage kobs at 10000 uM GlcN6P” value turned out to be 6.3e-05 ± 1.1e-05 s⁻¹.
For U47G A48U C68U, the “self-cleavage kobs at 10000 uM GlcN6P” value is 9.1e-05 ± 1.8e-05 s⁻¹.
With C10U G38U G63C C70U, the “self-cleavage kobs at 10000 uM GlcN6P” value was less than 1e-05 s⁻¹.
The value for A36U C68G C71U was 5.72e-05 ± 2.3e-05 s⁻¹; that for U30G A39U C70A was 7.17e-05 ± 1.8e-05 s⁻¹; that for A15C U30C G62U was less than 1e-05 s⁻¹.
Take U47G U55C C67A: the “self-cleavage kobs at 10000 uM GlcN6P” value was 0.000309 ± 4.9e-05 s⁻¹.
The value for A39C C50A A53C G66U was less than 1e-05 s⁻¹.
Consider C10G G29A U65C, for which the “self-cleavage kobs at 10000 uM GlcN6P” value is less than 1e-05 s⁻¹.
G32U U49G A64G: the “self-cleavage kobs at 10000 uM GlcN6P” value stood at 0.000122 ± 2.8e-05 s⁻¹.
Turning to C50U U55C, the “self-cleavage kobs at 10000 uM GlcN6P” value is 4.47e-05 ± 1.1e-05 s⁻¹.
For C10U A33G C68U, the “self-cleavage kobs at 10000 uM GlcN6P” value was less than 1e-05 s⁻¹.
Under C8A A15U C70U stands less than 1e-05 s⁻¹; under A14U U49C C70A, less than 1e-05 s⁻¹.
With G29C U46G C67U, the “self-cleavage kobs at 10000 uM GlcN6P” value is 0.000125 ± 3.3e-05 s⁻¹.
C10A A36C C50U G59C: the “self-cleavage kobs at 10000 uM GlcN6P” value was less than 1e-05 s⁻¹.
With A15G U31C G38C G63A, the “self-cleavage kobs at 10000 uM GlcN6P” value was less than 1e-05 s⁻¹.
With C16U G35C C58A, the “self-cleavage kobs at 10000 uM GlcN6P” value was less than 1e-05 s⁻¹.
Regarding G7C A48G C50A, the “self-cleavage kobs at 10000 uM GlcN6P” value was less than 1e-05 s⁻¹.
For the variant C8G A42U U55G, the “self-cleavage kobs at 10000 uM GlcN6P” value was less than 1e-05 s⁻¹.
Under A6G A14U A36G C50A stands less than 1e-05 s⁻¹; under C11U G29C C71U, 0.000101 ± 1.9e-05 s⁻¹.
Turning to A36G A64G C70G, the “self-cleavage kobs at 10000 uM GlcN6P” value is less than 1e-05 s⁻¹.
On to A12U A64U C67U, for which the “self-cleavage kobs at 10000 uM GlcN6P” value is 0.00017 ± 3e-05 s⁻¹.
Under G41C G59U G60C stands less than 1e-05 s⁻¹.
The value for A48G A52G C71G was less than 1e-05 s⁻¹; that for U57C C58A was 2.32e-05 ± 9.2e-06 s⁻¹.
